The test deals with Vta1^VSL (S. cerevisiae, UniProt Q06263 1-330). The experiment in a line: cryo-EM structure. The settings on record: both partners purified.

Where no end group is shown, it is not given here.

B1: Vta1^VSL (domain or fragment)
chain: SYTKDELTKIMDRASKIEQIQKLAKYAISALNYEDLPTAKDELTKALDLLNSI
modifications: also: homodimer
As for B1, the stoichiometry N (usually a count of units in the complex or per binding partner) stood at 2.

Source of the values: article PMC5413351, “Structural basis of protein translocation by the Vps4-Vta1 AAA ATPase” (eLife, 2017).
